Measured values from paper PMC5084153, “Structural studies on MRG701 chromodomain reveal a novel dimerization interface of MRG proteins in green plants” (Protein & Cell, 2016).
Substitutions are numbered along the chain they refer to. “And” between values parts separate entries of the source, which are not always exact repeats. Equal values may be shown once. Primed or numbered codes have the meaning given here. No end group written: not given here. Me3″ = trimethyl (trimethyl-lysine)

T1: MRG1 chromodomain (MRG1^CD, residues 28-110) (Arabidopsis thaliana, UniProt Q94C32 28-110)
T1 chain: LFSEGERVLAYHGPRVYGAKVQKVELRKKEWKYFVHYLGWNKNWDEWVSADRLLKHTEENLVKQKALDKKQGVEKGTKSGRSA

T2: MRG2 chromodomain (MRG2^CD) (Arabidopsis, UniProt Q4V3E2 51-123)
T2 chain: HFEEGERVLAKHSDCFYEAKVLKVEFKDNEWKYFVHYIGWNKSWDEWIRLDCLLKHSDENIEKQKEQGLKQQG

T3: MRG2 chromodomain mutant E75A (MRG2^CDE75A) (Arabidopsis, UniProt Q4V3E2 51-123, E75A)
T3 sequence: T2 chain with E25A

T4: MRG1 chromodomain mutant W58A (MRG1^CDW58A) (Arabidopsis thaliana, UniProt Q94C32 28-110, W58A)
T4 sequence: T1 chain with W31A

T5: MRG1 chromodomain mutant W58A (MRG1^CDW58A) (Arabidopsis thaliana, UniProt Q94C32 28-110, W58A)
T5 construct: MRG1 of Arabidopsis thaliana, chromodomain, residues 28-110, point mutant W58A; source: E. coli BL21 (DE3), purified (Ni HiTrap, tag removed by ULP enzyme, Superdex G75)
T5 sequence (looked up): T1 chain with W31A

B1: histone H3K4me3 peptide (residues 1-9) (peptide, UniProt P68431 2-10, looked up)
peptide: ARTK(Me3″)QTARK
notes: histone H3, residues 1-9, trimethylated at lysine 4
B2: MRG1 chromodomain (MRG1^CD, residues 28-110) (domain or fragment, Arabidopsis thaliana, UniProt Q94C32 28-110, looked up)
chain: T1 chain
notes: MRG1 of Arabidopsis thaliana, chromodomain, residues 28-110; Homodimer by SEC-MALS; also called wild-type MRG1^CD; source: E. coli BL21 (DE3), purified (Ni HiTrap, tag removed by ULP enzyme, Superdex G75)
B3: MRG1^CD: MRG1 chromodomain (residues 28–110), Arabidopsis thaliana (protein)
chain: T1 chain
modifications: left off: SMT3 (from the modified vector pET28-SMT3), end not stated, cleaved
notes: MRG1 chromodomain (residues 28–110), Arabidopsis thaliana
B4: MRG1^CDW58A: point mutant of MRG1 chromodomain disrupting π-π stacking (protein)
chain: T1 chain with W31A
modifications: left off: SMT3 (from the modified vector pET28-SMT3), end not stated, cleaved
notes: point mutant of MRG1 chromodomain disrupting π-π stacking
B5: MRG2 chromodomain (MRG2^CD) (domain or fragment, Arabidopsis)
chain: T2 chain
notes: MRG2 of Arabidopsis, chromodomain; Homodimer by SEC-MALS; also called wild-type MRG2^CD; source: purified
B6: MRG2^CDE75A: point mutant of MRG2 chromodomain disrupting hydrogen bonding and electrostatic interactions (protein)
chain: T2 chain with E25A

Assays:
[1] = biological target: MRG701 chromodomain (MRG701^CD, residues 27-96) (Oryza sativa); assay: SEC-MALS; Wyatt 015S5 (150 Å) column, 0.5 mL/min, 10 mmol/L Tris 8.0, 100 mmol/L NaCl; self-association of the chromodomain
[2] = biological target: T6, MRG1^CDW58A (Arabidopsis thaliana, UniProt Q94C32, W58A); format: binding
T6 construct: Arabidopsis thaliana MRG1 (residues 28–110); His-SMT3 (SUMO) from modified pET28-SMT3 (N, cleaved yes); made in house; host or cells: Escherichia coli BL21 (DE3)
T6 sequence (Q94C32 28-110 W58A): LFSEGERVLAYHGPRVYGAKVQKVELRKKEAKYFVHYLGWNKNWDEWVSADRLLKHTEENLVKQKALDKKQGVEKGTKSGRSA
Experimental: The cDNA encoding the chromodomain of Arabidopsis thaliana MRG1 (residues 28–110) and Oryza sativa MRG701 (residues 27–96) were amplified by PCR and cloned into the modified pET28-SMT3 vector. Point mutants were generated by Site-Directed Mutagenesis kit (NEB) according to the manufacturer’s instructions. The plasmid was transformed into Escherichia coli strain BL21 (DE3). The cells were cultured in LB medium with 50 μg/mL kanamycin and induced by final concentration of 0.2 mmol/L isopropyl-β-d-thiogalactopyranoside (IPTG) at 18°C for 18 h. Cells were harvested and re-suspended in 20 mmol/L Tris pH 8.0, 500 mmol/L NaCl, 25 mmol/L imidazole and then broken by cell disruptor (JNBIO). The fusion protein was purified first with Ni HiTrap column (GE healthcare) and then removed the tag by ULP enzyme. The target protein was further purified with Superdex G75 Hiload 26/60 column (GE healthcare) and then concentrated to 20 mg/mL for structural and biochemical studies.
ITC experiments were carried out at 20°C on a MicroCal iTC200. Protein and peptide were kept in an identical buffer of 20 mmol/L Tris pH 8.0, 100 mmol/L NaCl. The sample cell was filled with a 0.1–0.2-mmol/L solution of protein, and the injection syringe with 1–2 mmol/L of the titrating ligand. […] Binding isotherms were analyzed by fitting data into the one-site model using the ITC data analysis module Origin 7.0 software.

[3] = biological target: T7, MRG2^CDE75A (Arabidopsis thaliana, UniProt Q4V3E2, E75A); format: binding
T7 construct: the Arabidopsis MRG2 chromodomain (MRG2^CD)
T7 sequence (Q4V3E2 52-101 E75A): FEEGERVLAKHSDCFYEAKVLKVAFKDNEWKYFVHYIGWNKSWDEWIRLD
Experimental: ITC experiments were carried out at 20°C on a MicroCal iTC200. Protein and peptide were kept in an identical buffer of 20 mmol/L Tris pH 8.0, 100 mmol/L NaCl. The sample cell was filled with a 0.1–0.2-mmol/L solution of protein, and the injection syringe with 1–2 mmol/L of the titrating ligand. Each titration consisted of 20 2-μL injections with 2 min interval. Binding isotherms were analyzed by fitting data into the one-site model using the ITC data analysis module Origin 7.0 software.

[4] = biological target: MRG701 chromodomain (MRG701^CD, residues 27-96) (Oryza sativa); assay: ITC; MicroCal iTC200, 20°C, 20 mmol/L Tris pH 8.0, 100 mmol/L NaCl; protein 0.1-0.2 mmol/L in the cell, peptide 1-2 mmol/L in the syringe; one-site model
[5] = biological target: MRG701 chromodomain mutant W56A (MRG701^CDW56A) (Oryza sativa); assay: as above
[6] = biological target: T1, MRG1 chromodomain (MRG1^CD, residues …); assay: ITC
[7] = biological target: T2, MRG2 chromodomain (MRG2^CD); assay: ITC
[8] = biological target: T3, MRG2 chromodomain mutant E75A …; assay: ITC
[9] = biological target: T4, MRG1 chromodomain mutant W58A …; assay: ITC
[10] = biological target: B2; assay: ITC; MicroCal iTC200, 20°C, 20 mmol/L Tris pH 8.0, 100 mmol/L NaCl; protein 0.1-0.2 mmol/L in the cell, peptide 1-2 mmol/L in the syringe; one-site model; settings: both partners purified
[11] = biological target: T5, MRG1 chromodomain mutant W58A …; assay: as above; settings: both partners purified
[12] = biological target: the molecule itself; assay: SEC-MALS; Wyatt 015S5 (150 Å) column, 0.5 mL/min, 10 mmol/L Tris 8.0, 100 mmol/L NaCl; self-association of the chromodomain
[13] = SEC-MALS analysis of oligomerization status in solution; format: physicochemical; settings: for oligomerization in crystal and in solution (in words): SEC-MALS and crystal structure; for Observed molar mass by SEC-MALS: Wyatt 015S5 (150 Å) column, 0.5 mL/min, 10 mmol/L Tris 8.0, 100 mmol/L NaCl, multi-angle light scattering and differential refractive index
Experimental: The absolute molar mass of target protein was determined by size exclusion chromatography coupled with multi-angel light scattering. The experiments were performed by an Agilent system connected with a Wyatt DAWN HELEOS-II multi-angle light scattering instrument and a Wyatt OptilabrEX differential refractometer. A Wyatt 015S5 (150 Å) column was used with a 100 μL sample loop at a flow rate of 0.5 mL/min in the running buffer of 10 mmol/L Tris 8.0, 100 mmol/L NaCl. The molar mass was calculated by light scattering intensity and differential refractive index using Wyatt ASTRA 6 software (Wyatt, [1993]).

Molecule: MRG701 chromodomain (MRG701^CD, residues 27-96) (domain or fragment)
- stoichiometry N [1]: 2

Molecule: C[C@H](N)C(=O)N[C@@H](CCCNC(=N)N)C(=O)N[C@H](C(=O)N[C@@H](CCCC[N+](C)(C)C)C(=O)N[C@@H](CCC(N)=O)C(=O)N[C@H](C(=O)N[C@@H](C)C(=O)N[C@@H](CCCNC(=N)N)C(=O)N[C@@H](CCCCN)C(=O)O)[C@@H](C)O)[C@@H](C)O [H3K4me3]
- difference of Kd between wild-type and mutant proteins (in words) [2]: only mild differences
- difference of Kd between wild-type and mutant proteins (in words) [3]: only mild differences

Molecule: histone H3K36me3 peptide (residues 31-41) (from UniProt P68431 32-42)
- Kd [4]: 510 µM
- Kd [5]: 260 µM

Molecule: B1
- Kd [6]: 650 µM
- Kd [7]: 520 µM
- Kd [8]: 450 µM
- Kd [9]: 910 µM
- Kd [4]: 330 µM
- Kd [5]: 250 µM
- binding result [10]: binds
- binding result [11]: binds

Molecule: B2
- stoichiometry N [12]: 2

Molecule: B3
- oligomerization in crystal and in solution (in words) [13]: form dimers both in crystal and in solution
- Observed molar mass by SEC-MALS [13]: 20.7 kDa and 20.67 ± 2.99 kDa

Molecule: B4
- Observed molar mass by SEC-MALS [13]: 13.4 kDa and 13.36 ± 1.40 kDa

Molecule: B5
- oligomerization in crystal and in solution (in words) [13]: form dimers both in crystal and in solution
- Observed molar mass by SEC-MALS [13]: 20.7 kDa and 20.74 ± 3.05 kDa
- stoichiometry N [12]: 2

Molecule: B6
- Observed molar mass by SEC-MALS [13]: 12.5 kDa and 12.47 ± 0.92 kDa
